The values below come from patent publication US20040224408A1, “THAP proteins as nuclear receptors for chemokines and roles in transcriptional regulation, cell proliferation and cell differentiation” (published 2004).

First the molecules themselves.
T1: Par4 deletion mutant lacking the leucine zipper/death domain (amino acids 1-276) (human, UniProt Q96IZ0 1-274)
T1 construct: Tested as a Gal4-BD or Gal4-AD fusion in yeast two-hybrid; also called Par4A; Par4Δ
T1 sequence: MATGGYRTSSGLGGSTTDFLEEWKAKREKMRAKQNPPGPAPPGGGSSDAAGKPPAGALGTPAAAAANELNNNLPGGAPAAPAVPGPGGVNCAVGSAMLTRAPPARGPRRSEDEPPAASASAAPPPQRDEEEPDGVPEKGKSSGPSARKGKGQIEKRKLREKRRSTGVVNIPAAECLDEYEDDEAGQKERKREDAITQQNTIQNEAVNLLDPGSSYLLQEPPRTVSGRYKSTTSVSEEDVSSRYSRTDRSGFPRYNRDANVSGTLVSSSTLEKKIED

T2: GST-THAP1 fusion protein (pGEX-2T-THAP1) (human, UniProt Q5RCE4 1-213 (Pongo abelii entry))
T2 construct: Expressed in E. coli DH5alpha and immobilized on glutathione sepharose; also called GST-THAP1 wild-type; not shown: Glutathione S-transferase (GST) encoded by the pGEX-2T prokaryotic expression vector (Amersham Pharmacia Biotech); N-ter
T2 sequence: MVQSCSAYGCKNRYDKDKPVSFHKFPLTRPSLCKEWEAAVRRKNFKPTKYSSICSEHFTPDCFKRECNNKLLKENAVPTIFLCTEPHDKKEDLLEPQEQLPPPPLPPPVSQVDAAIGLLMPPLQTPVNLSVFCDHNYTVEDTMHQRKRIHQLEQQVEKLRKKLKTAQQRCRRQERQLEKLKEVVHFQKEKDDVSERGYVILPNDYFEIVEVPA

T3: human chemokine SLC/CCL21, mature form (amino acids 24-134) (human, UniProt O00585 24-134)
T3 construct: also called SLC/6Ckine; SLC/CCL21 wild type
T3 sequence: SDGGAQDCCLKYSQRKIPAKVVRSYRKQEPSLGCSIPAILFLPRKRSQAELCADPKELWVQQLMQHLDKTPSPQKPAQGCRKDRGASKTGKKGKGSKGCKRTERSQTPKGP

B1: human THAP1 (THanatos (death)-Associated Protein-1), full length (other)
chain: T2 sequence
notes: It was tested as a Gal4-BD (pGBKT7) or Gal4-AD (pGADT7); also called hTHAP1; FLJ10477
B2: THAP1-N1 deletion mutant (amino acids 1-90) (other)
chain: MVQSCSAYGCKNRYDKDKPVSFHKFPLTRPSLCKEWEAAVRRKNFKPTKYSSICSEHFTPDCFKRECNNKLLKENAVPTIFLCTEPHDKK
notes: Tested as a Gal4-BD or Gal4-AD fusion, as in vitro translated 35S-labelled protein and as an EGFP fusion

In experiment [1] the target is T4, Glutathione S-transferase (GST) control protein (pGEX-2T) (UniProt P08515 1-218 = GST).
T4 construct: Negative control immobilized on glutathione sepharose; also called GST beads; immobilized GST alone
T4 sequence (P08515 whole entry): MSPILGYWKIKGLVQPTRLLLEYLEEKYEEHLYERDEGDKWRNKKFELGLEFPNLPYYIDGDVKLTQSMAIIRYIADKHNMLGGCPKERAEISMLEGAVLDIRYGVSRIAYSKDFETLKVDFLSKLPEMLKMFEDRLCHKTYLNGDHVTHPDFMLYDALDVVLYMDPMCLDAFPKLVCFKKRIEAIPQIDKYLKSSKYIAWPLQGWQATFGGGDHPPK
Nature of the experiment: GST pull-down, immobilized GST control, in vitro translated 35S-labelled THAP1. As for the experimental part: To confirm the interaction observed in yeast, we performed in vitro GST pull down assays. Par4DD, expressed as a GST-tagged fusion protein and immobilized on glutathione sepharose, was incubated with radiolabeled in vitro translated THAP1. To generate the GST-Par4DD expression vector, Par4DD (amino acids 250-342) was amplified by PCR with primers Par4.10 (5′-[…]-3′) (SEQ ID NO: 194) and Par4.5, and cloned in frame downstream of the Glutathion S-Transferase ORF, into the BamHI site of the pGEX-2T prokaryotic expression vector (Amersham Pharmacia Biotech, Saclay, France). GST-Par4DD(amino acids 250-342) fusion protein encoded by plasmid pGEX-2T-Par4DD and control GST protein encoded by plasmid pGEX-2T, were then expressed in E. Coli DH5α and purified by affinity chromatography with glutathione sepharose according to supplier's instructions (Amersham Pharmacia Biotech). The yield of proteins used in GST pull-down assays was determined by SDS-Polyarylamide Gel Electrophoresis (PAGE) and Coomassie blue staining analysis. In vitro-translated THAP1 was generated with the TNT-coupled reticulocyte lysate system (Promega, Madison, Wis., USA) using pGBKT7-THAP1 vector as template. […]

The target in experiment [2] is T1, Par4 deletion mutant lacking the …. As to the kind of experiment: yeast two-hybrid (His/Ade selection). The text has this: We then examined whether the leucine zipper/death domain at the C-terminus of Par4, previously shown to be involved in Par4 binding to WT-1 and aPKC, was required for the interaction between THAP1 and Par4. Two Par4 mutants were constructed for that purpose, Par4A and Par4DD. Par4A lacks the leucine zipper/death domain while Par4DD contains this domain. pGBKT7-Par4A(amino acids 1-276) and pGADT7-Par4A. were constructed by sub-cloning a EcoRI-BglII fragment from pGADT7-Par4 into the EcoRI and BamHI sites of pGBKT7 and pGADT7. Par4DD (amino acids 250-342) was amplified by PCR, using pGBKT7-Par4 as template, with primers Par4.4 (5′-[…]-3′) (SEQ ID NO: 193) and Par4.5, and cloned into the EcoRI and BamHI sites of pGBKT7 and pGADT7 to obtain pGBKT7-Par4DD and pGADT7-Par4DD. Two-hybrid interaction between THAP1 and Par4 mutants was tested by cotransformation of AH109 with pGBKT7-THAP1 and pGADT7-Par4A or pGADT7-Par4DD and selection of transformants by His and Ade double auxotrophy according to manufacturer's instructions ([…] two-hybrid system 3, Clontech). […] Similar results were obtained when two-hybrid experiments were performed in the opposite orientation using Par4 or Par4 mutants (Par4A and Par4DD) as baits instead of THAP1 (FIG. 3A).

Experiment [3] concerns the target T2, GST-THAP1 fusion protein (pGEX-2T-THAP1). As to the kind of experiment: GST pull-down, immobilized GST-THAP1, in vitro translated 35S-labelled mutant. As for the experimental part:
To confirm the results obtained in yeast, THAP1 mutants were also tested in in vitro GST pull down assays. Wild type THAP1 expressed as a GST-tagged fusion protein and immobilized on glutathione sepharose (as described in example 16), was incubated with radiolabeled in vitro translated THAP1 mutants. In vitro-translated THAP1 mutants were generated with the TNT-coupled reticulocyte lysate system (Promega, Madison, Wis., USA) using pGADT7-THAP1-C1, -C2, -C3, -N1, -N2 or -N3 vector as template. 25 μl of each ³⁵S-labelled THAP1 mutant was incubated with immobilized GST or GST-THAP1 wild-type protein overnight at 4° C., in the following binding buffer: 10 mM NaPO4 pH 8.0, 140 mM NaCl, 3 mM MgCl2, 1 mM dithiothreitol (DTT), 0.05% NP40, and 0.2 mM phenylmethyl sulphonyl fluoride (PMSF), 1 mM Na Vanadate, 50 mM β Glycerophosphate, 25 μg/ml chimotrypsine, 5 μg/ml aprotinin, 10 μg/ml Leupeptin. Beads were then washed 5 times in 1 ml binding buffer. Bound proteins were eluted with 2×Laemmli SDS-PAGE sample buffer, fractionated by 10% SDS-PAGE and visualized by fluorography using Amplify (Amersham Pharmacia Biotech). As expected, THAP1-C1, -C2, -C3, -and -N3 interacted with GST/THAP1 (FIG. 16B).

For experiment [4], the target named is B1. As to the kind of experiment: yeast two-hybrid, pGADT7-THAP1 mutant with pGBKT7-THAP1 wild-type. As for the experimental part:
Two-hybrid interaction between THAP1 mutants and THAP1 wild type was tested by cotransformation of AH109 with pGADT7-THAP1-C1, -C2, -C3, -N1, -N2 or -N3 and pGBKT7-THAP1 wild-type and selection of transformants by His and Ade double auxotrophy according to manufacturer's instructions ([…] two-hybrid system 3, Clontech).

The target in experiment [5] is T3, human chemokine SLC/CCL21, mature form …. As to the kind of experiment: yeast two-hybrid, pGADT7-THAP1 mutant with pGBKT7-SLC/CCL21. As for the experimental part: Two-hybrid interaction between THAP1 mutants and chemokine SLC/CCL21 was tested by cotransformation of AH109 with pGADT7-THAP1-C1, -C2, -C3, -N1, -N2 or -N3 and pGBKT7-SLC/CCL21 and selection of transformants by His and Ade double auxotrophy according to manufacturer's instructions ([…] two-hybrid system 3, Clontech). pGBKT7-SLC/CCL21 vector was generated by subcloning the BamHI SLC/CCL21 fragment from pGBT9-SLC (see example 1) into the unique BamHI cloning site of vector pGBKT7 (Clontech).

Turning to B1, the binding result in experiment [1] and in experiment [2] was “no binding” throughout.
Take B2: the binding result in experiment [3], in experiment [4] and in experiment [5] was “no binding” each time.
